Assay [1] deals with KDEL receptor (KDEL‐R) (mouse (endogenous in DRG neurons)) (UniProt Q99JH8).
Assay [2] shares this target. This is another data set of the same source.
For assay [3] the target is unchanged. This is another data set of the same source.
For assay [4] the target is unchanged. This is another data set of the same source.
For assay [5] the target is unchanged. This is another data set of the same source.

These results are taken from publication PMC12362333.

UniProt Q99JH8, sequence (Q99JH8 whole entry): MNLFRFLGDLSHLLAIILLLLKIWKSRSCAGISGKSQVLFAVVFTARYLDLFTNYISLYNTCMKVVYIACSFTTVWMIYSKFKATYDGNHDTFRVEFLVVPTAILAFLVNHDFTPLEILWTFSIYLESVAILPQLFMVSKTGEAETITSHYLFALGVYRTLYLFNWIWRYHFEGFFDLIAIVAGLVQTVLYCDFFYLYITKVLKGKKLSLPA

In assay [1], “CDNF‐ΔKTEL (CDNF without the last four residues KTEL) (domain or fragment)” displayed a neurite length of DRG explants after 72 h (Figure 1B) of 200 μm. Further, the neurite length in dissociated DRG cell cultures, CDNF-ΔKTEL 18 μg/mL, 3 days (Figure 7B) in assay [2] is less than 200 μm. In assay [3], this substance had a neurite length of DRG explants after NGF deprivation, CDNF-ΔKTEL 18 μg/mL for 48 h (Figure 3B) of 200 μm. Moreover, the neuritic area of DRG explants after 72 h, CDNF-ΔKTEL 1.8 and 18 μg/mL (Figure 1C) in assay [4] stood at 2.9e+06 μm^2. Besides, the viable cells by LDH release, DRG explants under trophic deprivation, CDNF-ΔKTEL (Figure 3E) in assay [5] came to 61%.

Consider “cerebral dopamine neurotrophic factor (CDNF) (from UniProt Q49AH0 25-187) (ligand)”, for which the neurite length of DRG explants after 72 h, CDNF 1.8 and 18 μg/mL (Figure 1B) in assay [1] came to 600 μm. In addition, the neurite length in dissociated DRG cell cultures, CDNF 18 μg/mL, 3 days (Figure 7B) in assay [2] stood at 390 μm. Also, the neurite length of DRG explants after NGF deprivation, CDNF 18 μg/mL for 48 h (Figure 3B) in assay [3] worked out at 500 μm. The substance also yielded a neuritic area of DRG explants after 72 h, CDNF 18 μg/mL (Figure 1C) in assay [4] of 5.2e+06 μm^2. The viable cells by LDH release, DRG explants under trophic deprivation, CDNF 18 μg/mL (Figure 3E) in assay [5] is 75%.
